The experiment has as its target T1, insoluble type I collagen fibers (UniProt P02453 162-1217; P02465 80-1117).
T1 construct: type I collagen, alpha-1(I) chain; type I collagen, alpha-2(I) chain; Triple-helical, insoluble fibres; also called insoluble collagen fibers; native collagen; source: bought: Sigma‐Aldrich
Briefly: collagen-binding assay with Scatchard analysis; 2.5 mg insoluble type I collagen fibers in 50 μL binding buffer (50 mM Tris/HCl, 0.2 M NaCl, 5 mM CaCl2, pH 7.5) with 0.1–2.0 mg/mL C‐terminal segment and 0.05 mg/mL BSA; unbound protein in the filtrate by SDS/PAGE densitometry; triplicate; least‐squares fit. Conditions: both partners purified.

T1 sequence (P02453 162-1217, chain 1 of 2): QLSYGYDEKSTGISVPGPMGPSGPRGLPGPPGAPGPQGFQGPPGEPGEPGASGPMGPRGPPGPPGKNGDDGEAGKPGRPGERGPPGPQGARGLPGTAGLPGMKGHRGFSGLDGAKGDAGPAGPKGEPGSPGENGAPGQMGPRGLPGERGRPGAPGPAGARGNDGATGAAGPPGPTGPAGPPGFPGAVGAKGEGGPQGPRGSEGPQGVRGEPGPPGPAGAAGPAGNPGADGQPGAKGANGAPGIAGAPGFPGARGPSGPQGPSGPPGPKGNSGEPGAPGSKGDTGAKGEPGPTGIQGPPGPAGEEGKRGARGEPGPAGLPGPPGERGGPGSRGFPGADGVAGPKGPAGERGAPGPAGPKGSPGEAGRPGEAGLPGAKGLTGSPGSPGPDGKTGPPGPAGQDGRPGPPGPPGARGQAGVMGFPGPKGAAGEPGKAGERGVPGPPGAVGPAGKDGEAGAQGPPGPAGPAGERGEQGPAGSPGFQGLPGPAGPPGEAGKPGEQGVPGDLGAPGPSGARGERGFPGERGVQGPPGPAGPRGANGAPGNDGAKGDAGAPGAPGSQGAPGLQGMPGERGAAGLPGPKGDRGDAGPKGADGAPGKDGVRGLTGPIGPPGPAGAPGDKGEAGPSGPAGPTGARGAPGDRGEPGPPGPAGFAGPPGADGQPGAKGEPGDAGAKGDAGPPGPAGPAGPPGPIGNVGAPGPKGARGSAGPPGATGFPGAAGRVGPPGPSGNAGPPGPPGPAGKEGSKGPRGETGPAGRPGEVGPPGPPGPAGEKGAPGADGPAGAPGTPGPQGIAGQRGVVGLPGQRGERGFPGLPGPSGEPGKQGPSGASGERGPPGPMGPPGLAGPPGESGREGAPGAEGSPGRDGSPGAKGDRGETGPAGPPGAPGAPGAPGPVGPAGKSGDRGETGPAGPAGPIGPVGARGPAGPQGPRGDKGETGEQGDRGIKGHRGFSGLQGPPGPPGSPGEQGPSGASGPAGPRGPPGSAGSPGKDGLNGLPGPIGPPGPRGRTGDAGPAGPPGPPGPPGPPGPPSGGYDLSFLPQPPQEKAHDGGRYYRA
T1 sequence (P02465 80-1117, chain 2 of 2): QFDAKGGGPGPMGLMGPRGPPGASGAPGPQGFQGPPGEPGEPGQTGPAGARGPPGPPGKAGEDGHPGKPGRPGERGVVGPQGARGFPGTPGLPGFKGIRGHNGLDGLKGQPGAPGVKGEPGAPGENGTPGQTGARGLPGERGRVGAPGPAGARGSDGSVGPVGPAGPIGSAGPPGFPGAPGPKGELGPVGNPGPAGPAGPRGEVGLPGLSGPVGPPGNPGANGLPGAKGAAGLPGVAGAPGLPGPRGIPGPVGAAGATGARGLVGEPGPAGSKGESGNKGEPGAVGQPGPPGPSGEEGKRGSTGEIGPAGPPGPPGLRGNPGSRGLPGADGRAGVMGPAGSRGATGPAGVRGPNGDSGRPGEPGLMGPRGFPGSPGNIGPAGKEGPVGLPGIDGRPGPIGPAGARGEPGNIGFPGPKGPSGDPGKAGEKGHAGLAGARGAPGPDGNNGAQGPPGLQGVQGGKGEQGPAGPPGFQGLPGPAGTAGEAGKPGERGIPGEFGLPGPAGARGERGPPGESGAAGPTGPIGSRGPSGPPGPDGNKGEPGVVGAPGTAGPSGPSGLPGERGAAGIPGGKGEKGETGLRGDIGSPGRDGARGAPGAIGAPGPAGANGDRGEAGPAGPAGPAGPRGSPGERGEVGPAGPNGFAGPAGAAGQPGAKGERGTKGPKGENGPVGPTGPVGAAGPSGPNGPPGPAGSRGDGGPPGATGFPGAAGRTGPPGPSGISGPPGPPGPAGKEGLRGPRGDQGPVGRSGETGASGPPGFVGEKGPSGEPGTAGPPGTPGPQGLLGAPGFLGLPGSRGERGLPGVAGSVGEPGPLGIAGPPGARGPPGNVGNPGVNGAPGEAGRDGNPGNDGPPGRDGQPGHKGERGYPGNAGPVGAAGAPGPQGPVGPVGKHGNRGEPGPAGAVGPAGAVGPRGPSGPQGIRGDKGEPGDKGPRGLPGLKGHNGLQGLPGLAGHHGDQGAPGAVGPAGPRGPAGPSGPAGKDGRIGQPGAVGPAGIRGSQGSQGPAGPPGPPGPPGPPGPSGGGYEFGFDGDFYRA

B1: recombinant C‐terminal segment (aa 616–767) including the PPC domain of Grimontia hollisae strain 1706B collagenase (domain or fragment)
chain: TEALAKGDSGAGNGEGTGSGNEGGGESGGNTGLPENCAVLPKISDGRLALDEAACLADTASASDVLWFSIPAVSEYQTIAITAGNGTGDLTLEYSNLNWPDGTNVQASSANMGNSECIILEHQANYWGYLKVSGSFENAALLVEAGSNQCRQ
notes: 15.4 kDa; The forward primer carries the enterokinase site (DDDDK) just before residue T616, so the cleaved His-tag was probably N-terminal (surmised); QTOF-MS mass 15 445.01 Da fits two intrachain disulfide bonds; also called G. hollisae
Usually Kd stands for the constant that tells how readily two partners part at equilibrium. With B1, binding was put at a Kd of 27.2 µM.

Values taken from publication PMC6168687, “The C‐terminal segment of collagenase in Grimontia hollisae binds collagen to enhance collagenolysis” (FEBS Open Bio, 2018).
